14 molecules from patent publication US10654939 (BEIJING MABWORKS BIOTECH, dated 2020) can be followed below.

Experiment [1] deals with T1, mouse CD40 expressed on HEK293A cells (mouse, UniProt P27512 20-289).
T1 construct: also called HEK293A/mouseCD40
Put plainly: FACS, HEK293A/mouseCD40 cells.

Experiment [2] concerns the target T2, recombinant human CD40 (ECD)-his (human, UniProt P25942 21-193).
T2 construct: Bought protein; also called hCD40(ECD)-his; TNFRSF5
Put plainly: SPR (Biacore 8K), hCD40(ECD)-his coupled to chip, antibody injected. Here is the method: SPR assays were used to determine the binding affinity of the chimetic or humanized anti-CD40 antibodies to human CD40 with the BIAcore™ 8K instrument (GE Life Sciences). Briefly, 100-200 response units (RU) of human CD40 (ECD)-his protein (Sino Biological, CN, Cat #: 10774-H08H) were coupled to CM5 biosensor chips (Cat #: BR-1005-30, GE Life Sciences), followed by blocking of un-reacted groups with 1M ethanolamine. Serially diluted antibodies at concentrations ranging from […] were injected into the SPR running buffer (HBS-EP buffer, pH7.4, GE Life Sciences; US; Cat #: BR-1006-69) at 30 μL/minute. The binding capacity was calculated with the RUs of blank controls subtracted. The association rate (k_a) and dissociation rate (k_d) were calculated using the one-to-one Langmuir binding model (BIA Evaluation Software, GE Life Sciences). The equilibrium dissociation constant K_D was calculated as the k_d/k_a ratio.

The target of experiment [3] is T3, rhesus CD40 expressed on HEK293A cells (rhesus monkey, UniProt P25942 21-277 (human entry)).
T3 construct: also called HEK293A/rhesusCD40
T3 chain: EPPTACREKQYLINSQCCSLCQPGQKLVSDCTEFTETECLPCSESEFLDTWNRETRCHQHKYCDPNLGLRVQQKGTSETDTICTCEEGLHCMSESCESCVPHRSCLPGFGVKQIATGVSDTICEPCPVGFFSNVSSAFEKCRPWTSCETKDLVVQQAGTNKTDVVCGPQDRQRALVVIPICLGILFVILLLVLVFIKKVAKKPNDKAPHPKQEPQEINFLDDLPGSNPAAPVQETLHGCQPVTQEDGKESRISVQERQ
Put plainly: FACS on HEK293A/rhesus CD40 cells, serially diluted antibody (Example 14, protocol of Example 5). As to the method:
Example 5 Mouse Anti-CD40 Monoclonal Antibodies Bound to Human and Rhesus CD40 Expressed on HEK293A Cells To further determine whether anti-CD40 antibodies bound to human, monkey or mouse CD40 expressed on HEK293A cells, a cell-based binding assay by FACS was performed using the HEK293A cells stably overexpressing human, monkey or mouse CD40 as generated in Example 1, respectively. Briefly, 10^5 HEK293A cells were seeded into each well of the 96-well plates and serially diluted anti-CD40 antibodies were added to the plates. After incubated at 4° C. for 1 hour, plates were washed 3 times with PBST. Then, an APC coupled Goat Anti-Mouse IgG (BioLegen, US, Cat #: 405308) diluted 500× was added to the plates. After incubation at 4° C. for 1 hour, the plates were washed with PBS for 3 times and then cell fluorescence was monitored using a FACS machine (BD).
The chimeric and humanized anti-CD40 antibodies were further characterized for their ability of binding to HEK293A/humanCD40 cells and HEK293A/rhesus CD40 cells, following the protocols described in Example 5. They were also tested for their ability to activate CD40 signaling in HEK-Blue assay, and to promote dendritic cell maturation, following the protocols in Example 7 and Example 9, respectively, the dendritic cells collected form three healthy human donors. IL-12(p40) secretion by the dendritic cells was measured by using human IL12(p40) ELISA kit (BD, US, Cat #: 551116) following themanufactor's instruction.

T2 sequence (P25942 21-193): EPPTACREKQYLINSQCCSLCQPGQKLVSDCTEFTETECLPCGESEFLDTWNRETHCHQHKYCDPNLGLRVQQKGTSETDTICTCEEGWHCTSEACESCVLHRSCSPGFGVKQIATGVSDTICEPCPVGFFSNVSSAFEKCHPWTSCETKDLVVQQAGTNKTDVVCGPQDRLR
T1 sequence (P27512 20-289 limits assumed): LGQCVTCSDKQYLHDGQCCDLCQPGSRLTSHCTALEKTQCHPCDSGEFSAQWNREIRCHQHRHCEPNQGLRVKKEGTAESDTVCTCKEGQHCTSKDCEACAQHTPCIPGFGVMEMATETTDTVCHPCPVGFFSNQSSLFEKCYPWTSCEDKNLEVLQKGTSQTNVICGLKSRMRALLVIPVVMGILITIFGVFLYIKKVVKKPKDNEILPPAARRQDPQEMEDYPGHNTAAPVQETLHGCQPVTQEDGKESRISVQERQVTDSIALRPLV

B1: chimeric 50F6 antibody (antibody, human IgG2, kappa, V domains shown)
VH: QVQLEQSGDDLVKPGASVKLSCKASGYTFTTYWINWIKQRPGQGLEWIGRISPGSGSTHYNEMFKGKATLTVDTSSSTAYIQLSSLSSEDSAVYFCTRNDYWGQGTTLTVSS
VL: DIVLTQSPLSLPVSLGDQASISCRSSQSIVNSNGNTYLEWYLQKPGQSPKLLIYKVSNRFSGVPDRFSGSGSGTDFTLKISRVEAEDLGVYYCFQGSHVPLTFGAGTKLELKR
notes: Mouse variable regions with human IgG2/kappa constant regions
Regarding B1, the binding result in experiment [1] was “no binding”.

B2: chimeric 29A10 antibody (antibody, human IgG2, kappa, V domains shown)
VH: QVKLEQSGGGLVKPGGSLKLSCAASGFTFSHYYMYWVRQTPEKRLEWVATISDAGSYTYYSDSVKGRFTISRDNAKNNLYLQMSSLKSDDTAMYFCARTYYRGDGGYWFFDVWGAGTAVTVSS
VL: DIVITQSTSSLAVSVGEKVTMSCESSQSLLYSSNQKNYLAWYQQKPGQSPKLLIYWASTRESGVPDRFTASGSGTDFTLTISSVKAEDLAVYYCQQYYRSPLTFGAGTKLELKR
notes: as for B1
Consider B2, for which, in experiment [1], the binding result is reported as “no binding”.

B3: chimeric 7B4 antibody (antibody, human IgG2, kappa, V domains shown)
VH: EVQLQESGPGLVKPSQSLSLTCSVTGYSITTNYYWNWIRQFPGNKLEWMGYIKYDGSNNYNPSLKNRISITRDTSKNQFFLKLNSVTTEDTATYYCARLDYWGQGTSVTVSS
VL: DIVLTQSPLSLPVSLGDQASISCRSSQSLENSNGNTFLNWFLQKPGQSPQLLIYKVSNRFSGVLDRFSGTGSGTDFTLTISRVEAEDLGVYFCLQVTHVPFTFGSGTKLEIKR
notes: as for B1
On to B3, for which, in experiment [1], the binding result is “no binding”. Also, in experiment [2], the Kd amounted to 3.6 nM, the off-rate constant (koff) turned out to be 0.0036 s⁻¹ and the kon is 1e+06 M⁻¹ s⁻¹.

B4: chimeric 16A6 antibody (antibody, human IgG2, kappa, V domains shown)
VH: EVQLEQSGPGLVKPSQSLSLTCSVTGYSITTNYHWNWIRQFPGNKLEWMGYIKYDGSNNYNPSLKNRISITRDTSKNQFFLKLNSVTTEDTATYYCARLDYWGQGTSVTVSS
VL: DIVLTQSTLSLSVSLGDQASISCRSSQSLENSNGNTFLNWFLQKPGQSPQLLIYKVSNRFSGVLDRFSGTGSGTDLTLTISRVEAEDLGVYFCLQVTHVPFTFGSGTKLEIKR
notes: as for B1
As to B4, in experiment [1], the binding result is “no binding”.

B5: chimeric 142F7 antibody (antibody, human IgG2, kappa, V domains shown)
VH: EVQLEQSGAELVRPGTSVKVSCKASGYAFTNYLIEWGIQRPGQGLEWIGVINPGTGGTNYNEKFKDKATLTTDKSSSTAYMQLSSLTSDDSAVYFCARGGSGFAYWGQGTLVTVSA
VL: DIVLTQTTSSLSASLGDRVTISCRASQDINNYLNWYQQKPDGTVKLLIYYTSRLHSGVPSRFSGSGSGTDYSLTISNLEQEDIATYFCQQGNTLPWTFGGGTKLEIKR
notes: as for B1
For B5, the binding result in experiment [1] was “no binding”.

B6: chimeric 77D9 antibody (antibody, human IgG2, kappa, V domains shown)
VH: QVKLEESGGGLVKPGGSLKLSCAASGFTFRNYAMSWVRQSPGERLEWVAEVSGSGYYTYYPDTVTGRFTISRDNANNTLYLEVSSLRSEDTAMYYCTSRAYWGQGTLVTVSA
VL: IVMTQSPTLSLPVSLGDQASISCRSSQSIVLTNGNTYLEWYLQRPGQSPKLLIYKVSNRFSGVPDRFSGSGSGTDFTLKISRVEAEDLGVYYCFQGSHVPYTFGGGTKLEIKR
notes: as for B1
For B6, the binding result in experiment [1] is on record as “no binding”.

B7: 13A2-VH2VL2 (antibody, human IgG2, kappa, V domains shown)
VH: QVQLQESGPGLVKPSDTLSLTCAVSGYSITTNYYWNWIRQPPGKGLEWMGYINYDGSNNYNPSLKNRITISVDTSKNQFSLKLSSVTAVDTAVYYCARLDYWGQGTLVTVSS
VL: DVVLTQSPLSLPVTLGQPASISCRSSQSLENSNGNTFLNWFQQRPGQSPRLLIYKVSNRFSGVPDRFSGSGSGTDFTLKISRVEAEDVGVYYCLQVTHVPFTFGQGTKLEIKR
notes: Humanized, human IgG2/kappa
Consider B7, for which, in experiment [3], the binding result is “binds”. In experiment [2], the Kd amounted to 2.08 nM, the koff was 0.00171 s⁻¹ and the kon worked out at 823000 M⁻¹ s⁻¹.

B8: 7B4-VH2VL3 (antibody, human IgG2, kappa, V domains shown)
VH: QVQLQESGPGLVKPSDTLSLTCAVSGYSITTNYYWNWIRQPPGKGLEWMGYIKYDGSNNYNPSLKNRITISVDTSKNQFSLKLSSVTAVDTAVYYCARLDYWGQGTLVTVSS
VL: DVVLTQSPLSLPVTLGQPASISCRSSQSLENSNGNTFLNWFQQRPGQSPRLLIYKVSNRFSGVPDRFSGSGSGTDFTLKISRVEAEDVGVYFCLQVTHVPFTFGSGTKLEIKR
notes: Humanized, human IgG2/kappa
For B8, the “EC50 (read off the curve)” value in experiment [3] is about 0.2 µg/mL. For the same molecule, in experiment [2], the Kd stood at 3.6 nM, the koff was found to be 0.00639 s⁻¹ and the kon is 1.78e+06 M⁻¹ s⁻¹.

B9: 7B4-VH0VL0 (antibody, human IgG2, kappa, V domains shown)
VH: QVQLQESGPGLVKPSDTLSLTCAVSGYSITTNYYWNWIRQPPGKGLEWIGYIKYDGSNNYNPSLKNRVTMSVDTSKNQFSLKLSSVTAVDTAVYYCARLDYWGQGTLVTVSS
VL: DVVMTQSPLSLPVTLGQPASISCRSSQSLENSNGNTFLNWFQQRPGQSPRRLIYKVSNRFSGVPDRFSGSGSGTDFTLKISRVEAEDVGVYYCLQVTHVPFTFGQGTKLEIKR
notes: Humanized, human IgG2/kappa
For the molecule B9, the “EC50 (read off the curve)” value in experiment [3] is about 0.2 µg/mL. Besides, in experiment [2], the Kd worked out at 2.47 nM, the koff worked out at 0.0068 s⁻¹ and the on-rate constant (kon) turned out to be 2.75e+06 M⁻¹ s⁻¹.

B10: 7B4-VH3VL2 (antibody, human IgG2, V domains shown)
VH: QVQLQESGPGLVKPSDTLSLTCAVSGYSITTNYYWNWIRQPPGNKLEWMGYIKYDGSNNYNPSLKNRITISVDTSKNQFSLKLSSVTAVDTAVYYCARLDYWGQGTLVTVSS
VL: DVVLTQSPLSLPVTLGQPASISCRSSQSLENSNGNTFLNWFQQRPGQSPRLLIYKVSNRFSGVPDRFSGSGSGTDFTLKISRVEAEDVGVYYCLQVTHVPFTFGQGTKLEIKR
notes: Humanized, human IgG2/kappa
As for B10, the “EC50 (read off the curve)” value in experiment [3] is about 0.2 µg/mL. Also, in experiment [2], the dissociation constant Kd was determined as 4.2 nM, the off-rate (koff) stood at 0.00615 s⁻¹ and the on-rate (kon) stood at 1.46e+06 M⁻¹ s⁻¹.

B11: 13A2-VH2VL3 (antibody, human IgG2, kappa, V domains shown)
VH: QVQLQESGPGLVKPSDTLSLTCAVSGYSITTNYYWNWIRQPPGKGLEWMGYINYDGSNNYNPSLKNRITISVDTSKNQFSLKLSSVTAVDTAVYYCARLDYWGQGTLVTVSS
VL: DVVLTQSPLSLPVTLGQPASISCRSSQSLENSNGNTFLNWFQQRPGQSPRLLIYKVSNRFSGVPDRFSGSGSGTDFTLKISRVEAEDVGVYFCLQVTHVPFTFGSGTKLEIKR
notes: Humanized, human IgG2/kappa
Consider B11, for which the binding result in experiment [3] is on record as “binds”. In experiment [2], the Kd came out at 3.55 nM, the koff worked out at 0.00261 s⁻¹ and the kon was 735000 M⁻¹ s⁻¹.

B12: 7B4-VH3VL3 (antibody, human IgG2, V domains shown)
VH: QVQLQESGPGLVKPSDTLSLTCAVSGYSITTNYYWNWIRQPPGNKLEWMGYIKYDGSNNYNPSLKNRITISVDTSKNQFSLKLSSVTAVDTAVYYCARLDYWGQGTLVTVSS
VL: DVVLTQSPLSLPVTLGQPASISCRSSQSLENSNGNTFLNWFQQRPGQSPRLLIYKVSNRFSGVPDRFSGSGSGTDFTLKISRVEAEDVGVYFCLQVTHVPFTFGSGTKLEIKR
notes: Humanized, human IgG2/kappa
In the case of B12, the “EC50 (read off the curve)” value in experiment [3] was about 0.2 µg/mL. Besides, in experiment [2], the Kd was 2.99 nM, the koff came out at 0.00488 s⁻¹ and the kon came out at 2.13e+06 M⁻¹ s⁻¹.

B13: 13A2-VH0VL0 (antibody, human IgG2, kappa, V domains shown)
VH: QVQLQESGPGLVKPSDTLSLTCAVSGYSITTNYYWNWIRQPPGKGLEWIGYINYDGSNNYNPSLKNRVTMSVDTSKNQFSLKLSSVTAVDTAVYYCARLDYWGQGTLVTVSS
VL: DVVMTQSPLSLPVTLGQPASISCRSSQSLENSNGNTFLNWFQQRPGQSPRRLIYKVSNRFSGVPDRFSGSGSGTDFTLKISRVEAEDVGVYYCLQVTHVPFTFGQGTKLEIKR
notes: Humanized, human IgG2/kappa
For the molecule B13, the binding result in experiment [3] is on record as “binds”. Moreover, in experiment [2], the dissociation constant Kd stood at 28.8 nM, the koff was 0.0114 s⁻¹ and the on-rate constant (kon) was 396000 M⁻¹ s⁻¹.

B14: chimeric 92F6 antibody (antibody, human IgG2, kappa, V domains shown)
VH: QVQLEQSGAEVVKPGASVKVSCTASGFNIKDTYMHWVKQRPEQGLEWIGRIDPANGNTNYDPKFQGKATITADTSSNTGYLQLSSLTSEDTAVYYCSRWGYDWYFDVWGAGTSVTVSS
VL: DIVITQSTAIMSASPGEKVTITCSASSSVSYIHWFQQKPGTSPKLWIYTTANLASGVPARFSGSGSGTSYSLTISRMEAEDAATYYCQQRSNYPFTFGSGTKLEIKR
notes: as for B1
Turning to B14, the binding result in experiment [1] is “no binding”.
